Experimental findings from patent US20200157519A1 (IMMUNWORK, published 2020) are described below.

The target in test [1] is T1, human fibrin (human fibrinogen coated on the plate and treated with thrombin) (human, UniProt P02671 36-629; P02675 45-491; P02679 27-437).
T1 construct: Made on the plate: coated human fibrinogen (Sigma) treated with 1.0 U/mL thrombin, CaCl2 and L-cysteine
T1 sequence (looked up) 1: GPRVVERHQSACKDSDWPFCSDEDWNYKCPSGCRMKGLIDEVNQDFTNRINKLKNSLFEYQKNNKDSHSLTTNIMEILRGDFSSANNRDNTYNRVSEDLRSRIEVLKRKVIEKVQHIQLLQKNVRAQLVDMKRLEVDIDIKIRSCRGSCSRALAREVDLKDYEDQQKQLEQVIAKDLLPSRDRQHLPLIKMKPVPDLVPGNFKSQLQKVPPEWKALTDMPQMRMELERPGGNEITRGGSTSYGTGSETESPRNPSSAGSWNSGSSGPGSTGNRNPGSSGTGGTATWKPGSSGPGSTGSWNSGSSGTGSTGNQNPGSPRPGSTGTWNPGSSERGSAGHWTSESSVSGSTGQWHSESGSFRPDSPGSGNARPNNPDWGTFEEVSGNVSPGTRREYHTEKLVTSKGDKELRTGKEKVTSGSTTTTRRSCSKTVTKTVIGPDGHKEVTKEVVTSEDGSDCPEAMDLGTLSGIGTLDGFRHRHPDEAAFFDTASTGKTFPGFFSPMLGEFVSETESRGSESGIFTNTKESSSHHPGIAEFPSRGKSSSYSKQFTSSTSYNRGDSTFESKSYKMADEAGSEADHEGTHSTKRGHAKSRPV
T1 sequence (looked up) 2: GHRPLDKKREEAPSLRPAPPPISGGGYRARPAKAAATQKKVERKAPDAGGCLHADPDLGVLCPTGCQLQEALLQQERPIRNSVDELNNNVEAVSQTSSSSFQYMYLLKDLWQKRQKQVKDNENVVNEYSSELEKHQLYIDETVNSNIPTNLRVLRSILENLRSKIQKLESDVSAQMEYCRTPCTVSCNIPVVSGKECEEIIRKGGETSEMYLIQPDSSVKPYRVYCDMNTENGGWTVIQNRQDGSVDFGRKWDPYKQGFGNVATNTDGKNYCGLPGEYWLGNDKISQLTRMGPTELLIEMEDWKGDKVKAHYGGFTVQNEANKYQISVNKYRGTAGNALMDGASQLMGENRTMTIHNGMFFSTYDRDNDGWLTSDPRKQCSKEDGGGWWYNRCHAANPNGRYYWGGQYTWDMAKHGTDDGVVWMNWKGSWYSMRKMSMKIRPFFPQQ
T1 sequence (looked up) 3: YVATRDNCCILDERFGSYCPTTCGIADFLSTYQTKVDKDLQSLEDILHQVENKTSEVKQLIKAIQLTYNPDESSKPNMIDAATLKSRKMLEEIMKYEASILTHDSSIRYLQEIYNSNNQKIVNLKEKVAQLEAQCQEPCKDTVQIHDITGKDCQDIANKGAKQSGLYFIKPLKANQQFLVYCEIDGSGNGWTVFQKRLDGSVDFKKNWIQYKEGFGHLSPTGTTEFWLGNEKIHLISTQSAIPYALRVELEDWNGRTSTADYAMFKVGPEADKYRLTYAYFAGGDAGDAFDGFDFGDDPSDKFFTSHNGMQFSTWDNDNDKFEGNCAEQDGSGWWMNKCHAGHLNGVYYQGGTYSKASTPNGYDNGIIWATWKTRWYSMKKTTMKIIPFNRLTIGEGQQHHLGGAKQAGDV
In words: ELISA on fibrin-coated plate, HRP-protein L. Here is the method:
Each fibrin plate was prepared as follows. 100 μL of TBS containing a final concentration of 1.0 U/mL thrombin (Sigma), 2 mM CaCl, and 7 mM L-cysteine (Merck) was added to the wells of the fibrinogen plate, which was then washed with TBS and blocked with the buffer (5% non-fat dry milk/PBS). After the blocking, 100 μL of antibodies were added to each well, and the plate was incubated at room temperature for 1 hour. The plate was then washed three times, the HRP-conjugated protein L diluted to 1/5000 was added to the wells and incubated for 1 hour at room temperature. The wells were washed three times and added with 100 μL of TMB substrate buffer. 5 minutes later, the color development was stopped with 1 M HCl. The optical density (OD) was measured at 450 nm using a microplate reader.

The target of test [2] is T2, crosslinked human fibrin treated by human factor XIIIa (human, UniProt P02671 36-629; P02675 45-491; P02679 27-437, crosslinked by factor XIIIa).
T2 construct: Coated human fibrinogen treated with thrombin and 0.55 ug factor XIIIa (Zedira) per well; also called crosslinked fibrin
T2 sequence (looked up) 1: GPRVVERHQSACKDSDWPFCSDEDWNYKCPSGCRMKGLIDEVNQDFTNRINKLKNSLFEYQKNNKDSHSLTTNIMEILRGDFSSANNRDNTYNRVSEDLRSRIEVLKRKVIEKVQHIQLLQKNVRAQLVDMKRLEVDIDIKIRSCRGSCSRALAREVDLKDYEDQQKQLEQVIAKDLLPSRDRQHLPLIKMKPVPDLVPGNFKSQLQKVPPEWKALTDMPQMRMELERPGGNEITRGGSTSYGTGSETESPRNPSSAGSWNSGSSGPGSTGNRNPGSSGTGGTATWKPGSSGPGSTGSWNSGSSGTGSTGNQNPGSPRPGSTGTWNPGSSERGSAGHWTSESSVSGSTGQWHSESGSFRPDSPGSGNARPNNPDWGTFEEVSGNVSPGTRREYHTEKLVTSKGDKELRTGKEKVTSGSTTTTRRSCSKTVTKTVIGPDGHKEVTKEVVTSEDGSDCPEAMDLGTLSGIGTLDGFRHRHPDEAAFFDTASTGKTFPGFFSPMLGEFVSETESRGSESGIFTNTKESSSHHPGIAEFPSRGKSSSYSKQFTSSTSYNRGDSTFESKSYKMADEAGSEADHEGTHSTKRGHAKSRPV
T2 sequence (looked up) 2: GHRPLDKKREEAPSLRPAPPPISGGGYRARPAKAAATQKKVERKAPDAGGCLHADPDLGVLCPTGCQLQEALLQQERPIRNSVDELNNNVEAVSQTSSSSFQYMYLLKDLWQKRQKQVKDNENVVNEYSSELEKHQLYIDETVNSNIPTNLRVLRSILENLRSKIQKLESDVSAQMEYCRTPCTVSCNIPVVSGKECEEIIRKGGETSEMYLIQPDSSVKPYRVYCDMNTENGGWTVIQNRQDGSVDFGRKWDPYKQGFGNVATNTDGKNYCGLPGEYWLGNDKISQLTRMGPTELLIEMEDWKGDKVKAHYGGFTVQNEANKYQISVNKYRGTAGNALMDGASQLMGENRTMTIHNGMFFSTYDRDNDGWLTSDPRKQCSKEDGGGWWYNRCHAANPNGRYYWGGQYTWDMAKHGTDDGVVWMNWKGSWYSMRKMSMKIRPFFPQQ
T2 sequence (looked up) 3: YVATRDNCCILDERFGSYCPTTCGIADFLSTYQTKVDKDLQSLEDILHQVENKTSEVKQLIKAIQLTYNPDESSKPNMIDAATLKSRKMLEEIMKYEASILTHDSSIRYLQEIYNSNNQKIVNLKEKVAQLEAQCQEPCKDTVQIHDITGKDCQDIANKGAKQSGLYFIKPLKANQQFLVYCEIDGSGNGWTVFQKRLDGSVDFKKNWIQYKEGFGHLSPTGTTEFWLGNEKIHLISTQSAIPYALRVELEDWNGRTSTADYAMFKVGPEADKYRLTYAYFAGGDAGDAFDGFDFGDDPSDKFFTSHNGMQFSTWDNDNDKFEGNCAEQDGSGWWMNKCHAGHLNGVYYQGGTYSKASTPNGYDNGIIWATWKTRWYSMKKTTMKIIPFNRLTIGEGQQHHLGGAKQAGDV
In words: ELISA on crosslinked fibrin plate, HRP-protein L.

Test [3] has as its target T1, human fibrin (human fibrinogen coated …). Put plainly: single colony ELISA, OD450 on fibrin divided by OD450 on fibrinogen. Here is the method: (§1) E. coli strain ER2738 infected with single-clonal phages each harboring a selected scFv gene in its phagemid was grown in the mid-log phase in 2YT broth (16 g/L tryptone, 10 g/l yeast extract, 5 g/l NaCl, pH 7.0) with 100 μg/ml ampicillin in deep well at 37° C. with shaking. After broth reaching an OD₆₀₀ of 1.0, IPTG was added to a final concentration of 1 μg/ml. The plates were incubated at 37° C. overnight with rigorously shaking. Thereafter, the plates were centrifuged at 4,000 g for 15 minutes at 4° C.
(§2) For soluble scFv binding test, ELISA was carried out. In brief, 96-well Maxisorp 96-well plate (Nunc) was coated with fibrin (0.5 μg/100 μL PBS per well) or a negative control antigen, human fibrinogen, for 18 hours with shaking at 4° C. After treated with 300 μL of blocking buffer for one hour, 100 μL of secreted scFv in the supernatant was mixed with 100 μL of blocking buffer and then added to the coated plate for another one hour. Goat anti-E-tag antibody (conjugated with HRP, 1:4000, Cat. No. AB19400, Abcam) was added to the plate for one hour. TMB substrate (50 μL per well) was added to each well and the absorbance at 450 nm was measured after reactions were stopped by adding 1 N HCl (50 μL per well). The OD₄₅₀ for each well was measured to determine the binding affinity of each scFv clone to fibrin or fibrinogen. For each scFv clone, the OD₄₅₀ value with respect to fibrin was divided by with the OD₄₅₀ value with respect to fibrinogen to obtain an OD₄₅₀ ratio representing the selective binding of said scFv to fibrin over fibrinogen. In the single colony ELISA analysis, a total of 192 phage clones after the 3rd panning round was subjected to the present analysis. Among them, 12 scFv clones that bound to fibrin with an OD₄₅₀ ratio greater than 10 were further characterized by sequencing their scFv-coding gene. Six different DNA sequences were identified. […] The amino acid sequence of an scFv clone D10, which binds to human fibrin with an OD₄₅₀ of 1.3, is shown in SEQ ID NO: 4.

For test [4] the target is unchanged. Put plainly: single colony ELISA, secreted scFv on coated fibrin, anti-E-tag-HRP. Here is the method: as §1, §2

B1: recombinant anti-fibrin 3D5 antibody (full-length) (antibody, human IgG1, kappa, V domains shown)
VH: EVQLVESGGGLVQPGGSLRLSCAASGFTISDFGIHWVRQAPGKGLEWVASIWPSGGYTYYADSVKGRFTISADTSKNTAYLQMNSLRAEDTAVYYCARSWFYSWYDYWGQGTLVTVSS
VL: DIQMTQSPSSLSASVGDRVTITCRASQDVSNNVAWYQQKPGKAPKLLIFWSPWLYSGVPSRFSGSGSGTDFTLTISSLQPEDFATYYCQQGWDSPVTFGQGTKVEIKR
notes: Expressed from the pG1K vector in Expi293F cells, purified on Protein A
Consider B1, for which the binding result in test [1] and in test [2] was “binds” throughout.

B2: recombinant anti-fibrin 102-10 antibody (full-length) (antibody, human IgG1, kappa, V domains shown)
VH: QIQLVQSGPELKKPGETVKISCKASGYTFTNYGMNWVKQAPGKGLKWMGWINTYTGEATYADDFKGRFAFSLETSANTAYVQINNLKNEDTATYFCARLMDYWGQGTSVTVSS
VL: DIQMTQSPSSLSASLGGKVTITCKASQDINKYIAWFQHKPGKGPRLLIHYTSTLQPGIPSRFSGSGSGRDYSFSISNLEPEDLATYYCLQYDNLTWTFGGGTKLEIKR
For B2, the binding result in test [1] and in test [2] was “binds” throughout.

B3: scFv clone 3C2 (scFv, V domains shown)
VH: EVQLVESGGGLVQPGGSLRLSCAASGFTIGNSSIHWVRQAPGKGLEWVAGIWPYWGSTYYADSVKGRFTISADTSKNTAYLQMNSLRAEDTAVYYCARFGINNDGFMDYWGQGTLVTVSS
VL: DIQMTQSPSSLSASVGDRVTITCRASQDVSGWVAWYQQKPGKAPKLLISSTGSLYSGVPSRFSGSGSGTDFTLTISSLQPEDFATYYCQQYYDFPITFGQGTKVEIKR
notes: Tested as a secreted scFv with E-tag from the phage library
As for B3, the “OD450 ratio (fibrin over fibrinogen)” value in test [3] amounted to 64.9. The molecule further came in with an OD450_Fibrin in test [4] of 0.759 OD450.

B4: scFv clone 7A3 (scFv, V domains shown)
VH: EVQLVESGGGLVQPGGSLRLSCAASGFTINDWSIHWVRQAPGKGLEWVAYIGPFWGSTFYADSVKGRFTISADTSKNTAYLQMNSLRAEDTAVYYCARGYFGFDYWGQGTLVTVSS
VL: DIQMTQSPSSLSASVGDRVTITCRASQDVGGWVAWYQQKPGKAPKLLISSPRSLYSGVPSRFSGSGSGTDFTLTISSLQPEDFATYYCQQYFSSPFTFGQGTKVEIKR
notes: as for B3
Turning to B4, the “OD450 ratio (fibrin over fibrinogen)” value in test [3] was 20.5. This molecule also yielded an OD450_Fibrin in test [4] of 0.428 OD450.

B5: scFv clone 8F2 (scFv, V domains shown)
VH: EVQLVESGGGLVQPGGSLRLSCAASGFTINNYGIHWVRQAPGKGLEWVAGIWPYWGYTYYADSVKGRFTISADTSKNTAYLQMNSLRAEDTAVYYCARFDSNSYSSYSDGFMDYWGQGTLVTVSS
VL: DIQMTQSPSSLSASVGDRVTITCRASQDVDNSVAWYQQKPGKAPKLLISSARSLYSGVPSRFSGSGSGTDFTLTISSLQPEDFATYYCQQYYNYPITFGQGTKVEIKR
notes: as for B3
For B5, the “OD450 ratio (fibrin over fibrinogen)” value in test [3] amounted to 14.4. Also, the OD450_Fibrin in test [4] came out at 0.527 OD450.

B6: phage-displayed 3D5 scFv (scFv)
scFv: DIQMTQSPSSLSASVGDRVTITCRASQDVSNNVAWYQQKPGKAPKLLIFWSPWLYSGVPSRFSGSGSGTDFTLTISSLQPEDFATYYCQQGWDSPVTFGQGTKVEIKRGGGGSGGGGSGGGGSEVQLVESGGGLVQPGGSLRLSCAASGFTISDFGIHWVRQAPGKGLEWVASIWPSGGYTYYADSVKGRFTISADTSKNTAYLQMNSLRAEDTAVYYCARSWFYSWYDYWGQGTLVTVSS
notes: Tested as secreted scFv in culture supernatant, detected through its E-tag
Take B6: in test [3], the “OD450 ratio (fibrin over fibrinogen)” value turned out to be 377. Further, in test [4], the OD450_Fibrin amounted to 0.829 OD450.
